# Assay results: article PMC5411485
# Legend:
# [1] = system: ScNsrR D8C, [4Fe-4S] (Streptomyces coelicolor); experiment: EMSA; settings: EMSA: 10 mM Tris, 54 mM KCl, 0.3% glycerol, 1.32 mM glutathione, pH 7.2, on ice ~10 min; 5% PAGE in 1x TBE
# [2] = system: ScNsrR D8A, [4Fe-4S] (Streptomyces coelicolor); experiment: EMSA; settings: EMSA: 10 mM Tris, 54 mM KCl, 0.3% glycerol, 1.32 mM glutathione, pH 7.2, on ice ~10 min; 5% PAGE in 1x TBE
substance,measurement,setting,value
hmpA1 promoter probe,K half ([4Fe-4S] protein:DNA ratio),[1],20
same,K half ([4Fe-4S] protein:DNA ratio),[2],> 20
